Proliferation index of pHGG (SU-pcGBM2) cells, EdU assay, 24 h data for 1 substance are collected here from patent US20160222100A1.

For assay [1], the target named is recombinant full-length neuroligin-3 (Origene) (mouse) (UniProt Q8BYM5). Put plainly: cell-based or functional assay.
For assay [2], the target named is secreted neuroligin-3 in conditioned medium of optogenetically stimulated Thy1::ChR2 mouse cortical slices (mouse). As to the kind of experiment: cell-based or functional assay.

UniProt Q8BYM5, sequence (Q8BYM5 35-825 limits assumed): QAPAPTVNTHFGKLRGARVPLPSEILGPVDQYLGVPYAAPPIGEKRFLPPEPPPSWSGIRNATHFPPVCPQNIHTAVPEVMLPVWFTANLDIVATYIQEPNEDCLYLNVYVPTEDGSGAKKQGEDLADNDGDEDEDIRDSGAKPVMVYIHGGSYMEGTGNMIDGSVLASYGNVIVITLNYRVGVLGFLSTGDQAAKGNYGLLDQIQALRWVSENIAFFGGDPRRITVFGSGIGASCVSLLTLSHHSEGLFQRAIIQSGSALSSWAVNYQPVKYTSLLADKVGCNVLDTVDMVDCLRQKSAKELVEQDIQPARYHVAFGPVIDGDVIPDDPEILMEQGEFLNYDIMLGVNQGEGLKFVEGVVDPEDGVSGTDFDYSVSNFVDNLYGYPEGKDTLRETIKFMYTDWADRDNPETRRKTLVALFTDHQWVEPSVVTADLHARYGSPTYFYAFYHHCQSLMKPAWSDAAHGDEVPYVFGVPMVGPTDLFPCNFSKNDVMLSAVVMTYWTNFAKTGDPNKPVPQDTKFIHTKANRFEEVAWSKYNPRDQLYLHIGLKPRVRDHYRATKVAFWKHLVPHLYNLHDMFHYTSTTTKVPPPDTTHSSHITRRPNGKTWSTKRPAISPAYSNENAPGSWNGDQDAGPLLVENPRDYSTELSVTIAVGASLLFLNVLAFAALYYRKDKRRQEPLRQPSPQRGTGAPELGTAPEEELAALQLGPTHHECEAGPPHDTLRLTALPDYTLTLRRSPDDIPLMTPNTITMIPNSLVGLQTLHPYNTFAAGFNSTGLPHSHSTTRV

Consider “neurexin-1β (recombinant, R&D Systems) (ligand)”, for which the proliferation index of pHGG (SU-pcGBM2) cells, EdU assay, 24 h in assay [1] stood at 0.28; in assay [2] it was 0.34.
